Biological target: Casp-8^tDED_F122G/L123G mutant (human) (UniProt Q14790)
Experiment: crystal structure; FA^FuL_H9G-C8^FGLG-CF^H7G complex; proteins individually expressed in E. coli, complex co-purified by Ni-NTA and SEC (80 mM NaCl, 20 mM Tris pH 8.0); hanging drop, 20 °C; MR-SAD; 3.1 Å; one 1:5:4 complex per asymmetric unit; FADD DD not visible

- stoichiometry N: 5
Substance: Casp-8^tDED_F122G/L123G mutant (from UniProt Q14790 1-185) (domain or fragment)
